Substrate in the series: O=[N+]([O-])c1ccc(O[C@@H]2O[C@H](CO)[C@@H](O)[C@H](O)[C@H]2O)cc1
In words: purified protein. The note with it: 50 mM sodium acetate pH 5.5, 55 °C.

B1: AoBgl (Aspergillus oryzae exo-β-(1,3) glucanase) (Aspergillus oryzae RIB40) (protein)
chain: SRLDPRASSFDYNGEKVRGVNLGGWLVLEPWITPSIFDAAGAEAVDEWSLTKILGKEEAEARLSAHWKSFVSAGDFQRMADAGLNHVRIPIGYWALGPLEGDPYVDGQLEYLDKAVEWAGAAGLKVLIDLHGAPGSQNGFDNSGRRGAIQWQQGDTVEQTLDAFDLLAERYLGSDTVAAIEAINEPNIPGGVDQGKLQEYYGSVYGIVNKYNAGTSVVYGDGFLPVESWNGFKTEGSKVVMDTHHYHMFDNGLIAMDIDSHIDAVCQFAHQHLEASDKPVIVGEWTGAVTDCAKYLNGKGNGARYDGSYAADKAIGDCSSLATGFVSKLSDEERSDMRRFIEAQLDAFELKSGWVFWTWKTEGAPGWDMSDLLEAGVFPTSPDDREFPKQC
In the case of B1, the Michaelis-Menten constant (Km) (in general, the concentration of substrate that gives half-maximal velocity) was 5.78 mM.

Source of the values: paper doi:10.1101/2024.06.05.597502v1.
